Source: paper PMC9482650, “Quantitative fragmentomics allow affinity mapping of interactomes” (Nature Communications, 2022)

Assays:
Experiment in all cases: holdup assay
Design in all cases: key: below the threshold = too weak to quantify, mostly under pKd 3.1 to 4
Conditions in all cases: plain residues with an end cap or a label only (N-terminal biotin on a linker: ado-ado)
[1] = target: Inadl_4, Q8NI35
[2] = target: MAGI2_3, Q86UL8
[3] = target: MAGI1_1, Q96QZ7
[4] = target: IL16_3, Q14005
[5] = target: FRMPD4, Q14CM0
FRMPD4, Q14CM0, sequence (Q14CM0 67-160): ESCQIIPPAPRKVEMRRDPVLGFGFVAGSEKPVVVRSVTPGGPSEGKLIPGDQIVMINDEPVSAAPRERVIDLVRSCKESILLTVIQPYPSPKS

[6] = target: GRIP2_7, Q9C0E4
GRIP2_7, Q9C0E4, sequence (Q9C0E4 934-1023): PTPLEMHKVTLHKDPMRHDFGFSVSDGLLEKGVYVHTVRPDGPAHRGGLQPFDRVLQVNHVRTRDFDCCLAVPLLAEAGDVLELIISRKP

[7] = target: LDB3, O75112
LDB3, O75112, sequence (O75112 1-94): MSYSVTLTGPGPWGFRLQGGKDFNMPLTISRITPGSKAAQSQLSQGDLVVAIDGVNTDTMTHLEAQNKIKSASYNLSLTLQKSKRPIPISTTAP

[8] = target: PDLIM1, O00151
PDLIM1, O00151, sequence (O00151 1-87): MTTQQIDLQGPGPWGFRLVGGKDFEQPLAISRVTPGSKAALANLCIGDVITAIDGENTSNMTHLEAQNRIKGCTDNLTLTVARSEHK

[9] = target: FRMPD3, Q5JV73
FRMPD3, Q5JV73, sequence (Q5JV73 12-100): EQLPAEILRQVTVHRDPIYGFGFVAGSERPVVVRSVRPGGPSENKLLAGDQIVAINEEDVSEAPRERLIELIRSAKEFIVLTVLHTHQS

[10] = target: IL16_4, Q14005
IL16_4, Q14005, sequence (Q14005 1229-1329): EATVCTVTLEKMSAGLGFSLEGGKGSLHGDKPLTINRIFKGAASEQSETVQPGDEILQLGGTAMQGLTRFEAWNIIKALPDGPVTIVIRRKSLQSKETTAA

[11] = target: DLG4_3, P78352
DLG4_3, P78352, sequence (P78352 306-403): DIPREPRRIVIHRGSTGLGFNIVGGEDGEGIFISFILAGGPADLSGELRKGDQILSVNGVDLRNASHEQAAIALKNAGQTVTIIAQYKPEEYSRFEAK

[12] = target: Inadl_5, Q8NI35
Inadl_5, Q8NI35, sequence (Q8NI35 673-780): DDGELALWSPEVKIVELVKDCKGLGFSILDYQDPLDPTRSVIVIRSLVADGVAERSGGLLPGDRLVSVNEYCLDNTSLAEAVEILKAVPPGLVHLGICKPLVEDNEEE

[13] = target: DLG4_1, P78352
DLG4_1, P78352, sequence (P78352 62-152): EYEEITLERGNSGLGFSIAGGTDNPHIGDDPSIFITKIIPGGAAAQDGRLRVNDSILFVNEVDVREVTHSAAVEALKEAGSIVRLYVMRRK

[14] = target: T1, LNX2_2, Q8N448
T1 sequence (Q8N448 334-432, limits assumed, looked up): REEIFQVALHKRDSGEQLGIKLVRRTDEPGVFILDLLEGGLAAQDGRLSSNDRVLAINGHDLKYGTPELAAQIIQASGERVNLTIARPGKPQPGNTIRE

[15] = target: MAGI2_5, Q86UL8
MAGI2_5, Q86UL8, sequence (Q86UL8 915-1017): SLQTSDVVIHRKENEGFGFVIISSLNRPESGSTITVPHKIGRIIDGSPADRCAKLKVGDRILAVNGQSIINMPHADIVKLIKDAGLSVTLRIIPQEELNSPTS

[16] = target: GRIP2_4, Q9C0E4
GRIP2_4, Q9C0E4, sequence (Q9C0E4 446-548): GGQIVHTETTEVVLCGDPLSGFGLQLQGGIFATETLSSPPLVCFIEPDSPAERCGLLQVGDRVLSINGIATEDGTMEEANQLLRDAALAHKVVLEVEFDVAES

[17] = target: LAP2, Q96RT1
LAP2, Q96RT1, sequence (Q96RT1 other isoform, or with tags, fused parts or gaps): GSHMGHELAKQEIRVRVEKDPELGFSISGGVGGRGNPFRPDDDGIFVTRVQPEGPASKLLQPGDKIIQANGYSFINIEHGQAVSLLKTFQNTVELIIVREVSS

[18] = target: HTRA1, Q92743
HTRA1, Q92743, sequence (Q92743 360-477): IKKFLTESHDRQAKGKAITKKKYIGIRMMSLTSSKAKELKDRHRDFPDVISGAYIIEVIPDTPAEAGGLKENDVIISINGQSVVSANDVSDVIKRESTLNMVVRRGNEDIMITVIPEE

[19] = target: TJP1_2, Q07157
TJP1_2, Q07157, sequence (Q07157 181-274): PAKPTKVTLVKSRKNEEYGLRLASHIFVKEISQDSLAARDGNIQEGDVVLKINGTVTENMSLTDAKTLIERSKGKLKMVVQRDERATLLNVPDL

[20] = target: DLG1_2, Q12959
DLG1_2, Q12959, sequence (Q12959 314-412): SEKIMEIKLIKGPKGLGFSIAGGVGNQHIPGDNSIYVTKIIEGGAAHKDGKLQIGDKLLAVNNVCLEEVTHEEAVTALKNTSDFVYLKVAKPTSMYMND

[21] = target: DLG2_3, Q15700
[22] = target: MAGI2_2, Q86UL8
MAGI2_2, Q86UL8, sequence (Q86UL8 410-522): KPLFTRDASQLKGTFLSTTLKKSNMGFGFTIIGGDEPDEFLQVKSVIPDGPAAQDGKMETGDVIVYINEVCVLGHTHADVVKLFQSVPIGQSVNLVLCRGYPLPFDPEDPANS

[23] = target: T2, PDZRN3_1, Q9UPQ7
T2 sequence (Q9UPQ7 244-349, limits assumed, looked up): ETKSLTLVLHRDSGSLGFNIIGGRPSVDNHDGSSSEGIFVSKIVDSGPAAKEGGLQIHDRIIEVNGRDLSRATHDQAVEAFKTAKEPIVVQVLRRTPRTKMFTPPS

[24] = target: GOPC, Q9HD26
[25] = target: GRASP, Q7Z6J2
GRASP, Q7Z6J2, sequence (Q7Z6J2 96-193): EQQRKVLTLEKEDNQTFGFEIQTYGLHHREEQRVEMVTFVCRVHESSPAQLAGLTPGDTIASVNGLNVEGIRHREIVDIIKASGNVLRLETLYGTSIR

[26] = target: LNX1_1, Q8TBB1
LNX1_1, Q8TBB1, sequence (Q8TBB1 261-371): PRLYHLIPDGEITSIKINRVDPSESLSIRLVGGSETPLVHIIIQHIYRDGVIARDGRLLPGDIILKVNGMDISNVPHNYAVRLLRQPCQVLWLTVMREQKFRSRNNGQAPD

[27] = target: T3, APBA2_2, Q99767
T3 sequence (Q99767 654-744, limits assumed, looked up): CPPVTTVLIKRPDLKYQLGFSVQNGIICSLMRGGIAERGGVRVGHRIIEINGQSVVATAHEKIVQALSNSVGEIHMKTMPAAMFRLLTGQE

[28] = target: T4, LIN7C, Q9NUP9
T4 sequence (Q9NUP9 88-185, limits assumed, looked up): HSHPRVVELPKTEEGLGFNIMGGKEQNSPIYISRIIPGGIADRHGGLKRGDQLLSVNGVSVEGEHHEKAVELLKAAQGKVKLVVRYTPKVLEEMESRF

[29] = target: Inadl_8, Q8NI35
Inadl_8, Q8NI35, sequence (Q8NI35 1425-1530): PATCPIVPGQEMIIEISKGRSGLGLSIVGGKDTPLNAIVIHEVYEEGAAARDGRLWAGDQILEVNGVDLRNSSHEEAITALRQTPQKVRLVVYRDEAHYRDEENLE

[30] = target: DLG4_2, P78352
DLG4_2, P78352, sequence (P78352 155-259): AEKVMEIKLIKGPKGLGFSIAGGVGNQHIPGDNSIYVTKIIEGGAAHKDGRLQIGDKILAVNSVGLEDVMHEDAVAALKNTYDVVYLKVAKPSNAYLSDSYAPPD

[31] = target: T5, HTRA4, P83105
T5 sequence (P83105 378-476, limits assumed, looked up): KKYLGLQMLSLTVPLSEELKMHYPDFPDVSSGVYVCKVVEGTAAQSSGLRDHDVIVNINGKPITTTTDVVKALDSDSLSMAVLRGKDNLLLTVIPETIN

[32] = target: GORASP1, Q9BQQ3
GORASP1, Q9BQQ3, sequence (Q9BQQ3 1-208): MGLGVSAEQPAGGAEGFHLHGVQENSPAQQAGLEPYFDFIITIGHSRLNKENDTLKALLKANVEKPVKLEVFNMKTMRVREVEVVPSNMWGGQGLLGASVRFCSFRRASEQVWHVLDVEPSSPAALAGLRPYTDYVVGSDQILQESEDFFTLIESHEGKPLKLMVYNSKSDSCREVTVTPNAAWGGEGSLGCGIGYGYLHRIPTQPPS

[33] = target: T6, ARHGAP21, Q5T5U3
T6 sequence (Q5T5U3 45-169, limits assumed, looked up): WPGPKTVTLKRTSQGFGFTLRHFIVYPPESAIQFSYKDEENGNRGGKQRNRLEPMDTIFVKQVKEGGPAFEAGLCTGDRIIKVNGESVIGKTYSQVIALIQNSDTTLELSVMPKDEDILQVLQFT

MAGI1_1, Q96QZ7, sequence (Q96QZ7 1-106): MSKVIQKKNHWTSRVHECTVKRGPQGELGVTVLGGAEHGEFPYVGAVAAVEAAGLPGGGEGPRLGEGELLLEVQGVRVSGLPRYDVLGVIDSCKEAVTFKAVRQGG
IL16_3, Q14005, sequence (Q14005 1107-1207): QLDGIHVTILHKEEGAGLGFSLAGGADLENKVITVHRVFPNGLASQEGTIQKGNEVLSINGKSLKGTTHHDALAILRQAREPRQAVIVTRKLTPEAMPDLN
MAGI2_3, Q86UL8, sequence (Q86UL8 600-682): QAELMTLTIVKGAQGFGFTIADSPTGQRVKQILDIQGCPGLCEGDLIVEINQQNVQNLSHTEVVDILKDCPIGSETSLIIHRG
Inadl_4, Q8NI35, sequence (Q8NI35 547-651): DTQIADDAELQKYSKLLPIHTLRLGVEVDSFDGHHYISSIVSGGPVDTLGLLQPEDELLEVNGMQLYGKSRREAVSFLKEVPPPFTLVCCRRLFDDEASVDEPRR

SKSLERATQL [COMMD3, Q9UBI1]
pKd [1]: below the threshold
pKd [2]: below the threshold
pKd [3]: below the threshold
pKd [4]: below the threshold
pKd [5]: 4.33
pKd [6]: 3.51
pKd [7]: below the threshold
pKd [8]: below the threshold
pKd [9]: below the threshold
pKd [10]: 3.95
pKd [11]: below the threshold
pKd [12]: below the threshold
pKd [13]: below the threshold
pKd [14]: 3.56
pKd [15]: 4.49
pKd [16]: below the threshold
pKd [17]: below the threshold
pKd [18]: 3.89
pKd [19]: 3.51
pKd [20]: 3.92
pKd [21]: 3.71
pKd [22]: 3.71
pKd [23]: 4.11
pKd [24]: 3.81
pKd [25]: 4
pKd [26]: 3.87
pKd [27]: below the threshold
pKd [28]: below the threshold
pKd [29]: 3.52
pKd [30]: 3.97
pKd [31]: below the threshold
pKd [32]: 3.78
pKd [33]: below the threshold

QELLEYETTV [XKR7, Q5GH72]
pKd [1]: below the threshold
pKd [2]: below the threshold
pKd [3]: below the threshold
pKd [4]: below the threshold
pKd [5]: below the threshold
pKd [6]: below the threshold
pKd [7]: below the threshold
pKd [8]: below the threshold
pKd [9]: below the threshold
pKd [10]: below the threshold
pKd [11]: below the threshold
pKd [12]: 3.55
pKd [13]: 4.94
pKd [14]: 4.71
pKd [15]: 4.89
pKd [16]: below the threshold
pKd [17]: 4.56
pKd [18]: 4.69
pKd [19]: below the threshold
pKd [20]: 5.14
pKd [21]: 3.55
pKd [22]: 3.76
pKd [23]: 4.33
pKd [24]: 3.96
pKd [25]: 4.12
pKd [26]: 4.57
pKd [27]: below the threshold
pKd [28]: 4.79
pKd [29]: 3.59
pKd [30]: 4.91
pKd [31]: below the threshold
pKd [32]: 4.23
pKd [33]: 4.19

REVVMRVTTV [MARCHF9, Q86YJ5]
pKd [1]: below the threshold
pKd [2]: 4.6
pKd [3]: below the threshold
pKd [4]: below the threshold
pKd [5]: below the threshold
pKd [6]: below the threshold
pKd [7]: below the threshold
pKd [8]: below the threshold
pKd [9]: below the threshold
pKd [10]: 3.53
pKd [11]: 4.81
pKd [12]: below the threshold
pKd [13]: 5.06
pKd [14]: 5.6
pKd [15]: 4.12
pKd [16]: below the threshold
pKd [17]: 3.87
pKd [18]: 4.83
pKd [19]: below the threshold
pKd [20]: 5.44
pKd [21]: 4.92
pKd [22]: 5.14
pKd [23]: 3.81
pKd [24]: 4.9
pKd [25]: 4.57
pKd [26]: 4.41
pKd [27]: below the threshold
pKd [28]: 4.47
pKd [29]: 5.46
pKd [30]: 5.27
pKd [31]: 4.5
pKd [32]: 4.31
pKd [33]: below the threshold

WRSKRTDTLL [RAMP3, O60896]
pKd [1]: below the threshold
pKd [2]: below the threshold
pKd [3]: below the threshold
pKd [4]: below the threshold
pKd [5]: 4.7
pKd [6]: below the threshold
pKd [7]: below the threshold
pKd [8]: below the threshold
pKd [9]: below the threshold
pKd [10]: below the threshold
pKd [11]: below the threshold
pKd [12]: below the threshold
pKd [13]: 4.02
pKd [14]: below the threshold
pKd [15]: below the threshold
pKd [16]: below the threshold
pKd [17]: below the threshold
pKd [18]: 4.26
pKd [19]: 3.55
pKd [20]: 4.29
pKd [21]: below the threshold
pKd [22]: 4.23
pKd [23]: 3.73
pKd [24]: 3.61
pKd [25]: below the threshold
pKd [26]: below the threshold
pKd [27]: below the threshold
pKd [28]: below the threshold
pKd [29]: below the threshold
pKd [30]: 3.98
pKd [31]: below the threshold
pKd [32]: 3.78
pKd [33]: 4.27

VISERNSTTV [C3AR1, Q16581]
pKd [1]: below the threshold
pKd [2]: below the threshold
pKd [3]: below the threshold
pKd [4]: below the threshold
pKd [5]: below the threshold
pKd [6]: below the threshold
pKd [7]: below the threshold
pKd [8]: below the threshold
pKd [9]: below the threshold
pKd [10]: below the threshold
pKd [11]: 3.54
pKd [12]: 3.65
pKd [13]: 4.58
pKd [14]: 5.05
pKd [15]: 3.73
pKd [16]: below the threshold
pKd [17]: below the threshold
pKd [18]: 4.2
pKd [19]: below the threshold
pKd [20]: 4.72
pKd [21]: 3.8
pKd [22]: 4.51
pKd [23]: below the threshold
pKd [24]: 3.92
pKd [25]: 4.37
pKd [26]: 3.61
pKd [27]: below the threshold
pKd [28]: below the threshold
pKd [29]: 3.54
pKd [30]: 4.65
pKd [31]: 4.11
pKd [32]: below the threshold
pKd [33]: 3.96
